How the values were obtained:
human FcγRIIb (human) = human FcγRIIb (human) (UniProt P31994); assay: compared with fucosylated wild-type human IgG1; MSD per FIGS. 10A-10C
[1] = target: human FcγRIIa (H131 allele) (human) (UniProt P12318); assay: as above
[2] = target: human FcγRIIa (R131 allele) (human) (UniProt P12318); assay: as above
human C1q (human) = human C1q (human) (UniProt P02745); assay: C1q binding assay (FIG. 15: antibody Fc captured on Octet sensor, human C1q in solution)
Chain of human C1q (human) (P02745 23-245 limits assumed, chain 1 of 3): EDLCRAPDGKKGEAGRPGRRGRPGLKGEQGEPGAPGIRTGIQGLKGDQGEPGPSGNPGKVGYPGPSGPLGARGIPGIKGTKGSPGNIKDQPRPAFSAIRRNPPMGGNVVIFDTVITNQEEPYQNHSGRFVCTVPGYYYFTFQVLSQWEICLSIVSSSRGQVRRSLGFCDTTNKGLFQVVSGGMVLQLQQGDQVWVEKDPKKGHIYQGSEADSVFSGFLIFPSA
Chain of human C1q (human) (P02746 28-253 limits assumed, chain 2 of 3, further chain): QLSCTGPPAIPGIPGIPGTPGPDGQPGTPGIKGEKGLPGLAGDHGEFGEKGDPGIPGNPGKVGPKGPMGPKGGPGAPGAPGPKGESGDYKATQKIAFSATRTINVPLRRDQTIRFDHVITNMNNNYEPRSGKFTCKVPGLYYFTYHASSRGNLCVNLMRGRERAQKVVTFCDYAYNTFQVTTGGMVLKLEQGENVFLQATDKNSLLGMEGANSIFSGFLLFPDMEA
Chain of human C1q (human) (P02747 29-245 limits assumed, chain 3 of 3, further chain): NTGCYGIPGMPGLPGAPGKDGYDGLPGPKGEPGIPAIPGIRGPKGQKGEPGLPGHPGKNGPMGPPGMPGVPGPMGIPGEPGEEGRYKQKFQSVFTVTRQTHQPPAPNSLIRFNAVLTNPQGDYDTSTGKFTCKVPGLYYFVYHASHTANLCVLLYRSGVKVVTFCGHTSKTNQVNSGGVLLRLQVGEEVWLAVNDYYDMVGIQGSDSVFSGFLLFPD

Chain of human FcγRIIb (human) (P31994 43-217 limits assumed): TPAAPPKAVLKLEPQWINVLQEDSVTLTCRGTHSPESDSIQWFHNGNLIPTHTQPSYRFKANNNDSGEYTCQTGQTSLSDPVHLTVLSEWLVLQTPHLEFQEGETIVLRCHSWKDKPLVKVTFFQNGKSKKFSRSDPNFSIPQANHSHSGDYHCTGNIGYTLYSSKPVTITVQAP
Chain of human FcγRIIa (H131 allele) (human) (P12318 34-218 limits assumed): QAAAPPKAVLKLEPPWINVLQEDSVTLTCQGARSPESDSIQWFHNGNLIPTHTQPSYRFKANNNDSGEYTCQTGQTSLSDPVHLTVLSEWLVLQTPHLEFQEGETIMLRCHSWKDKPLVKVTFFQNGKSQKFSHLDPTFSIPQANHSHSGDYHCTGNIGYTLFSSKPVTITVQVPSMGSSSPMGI
Chain of human FcγRIIa (R131 allele) (human) (P12318 34-218 H167R limits assumed): as the sequence (P12318 34-218 limits assumed) above, with H134R counted along it

Substance: G236A_R292P (antibody)
- fold-change in binding vs fucosylated wild-type human IgG1 (human FcγRIIb (human)): < 0.5 fold

Substance: G236A_R292P_Y300L (antibody)
- fold-change in binding vs fucosylated wild-type human IgG1 [1]: > 14 fold
- fold-change in binding vs fucosylated wild-type human IgG1 [2]: > 2.7 fold

Substance: G236A_Y300L (antibody)
- fold-change in binding vs fucosylated wild-type human IgG1 [1]: > 18 fold
- fold-change in binding vs fucosylated wild-type human IgG1 [2]: > 4 fold

Substance: G236S_G420V_G446E_L309T (antibody)
- fold-change in binding vs fucosylated wild-type human IgG1 (human FcγRIIb (human)): < 0.5 fold

Substance: afucosylated Fc variant antibodies bearing the G236A ("GA") mutation (antibody)
- C1q binding relative to reference IgG1 antibody bearing M428L and N434S mutations only (human C1q (human)): 0.3 fold (×)
